Where “and” joins values, the source holds several entries; their conditions need not be identical. Equal values may be shown once.
Tests used:
[1] = Release of vancomycin from hydrogel; type: physicochemical; settings: VAN encapsulated in hydrogel only
Description: A third example is a DDS where only hydrogel is used to release vancomycin (VAN, antibiotics, 1450 Da). VAN was encapsulated in the hydrogel as a short-term release DDS (e.g., for use as a prophylactic treatment before ocular surgery).

[2] = Bioactivity of vancomycin released from hydrogel; settings: throughout release from hydrogel
[3] = Animal modeling of vancomycin hydrogel DDS (subconjunctival injection); type: in vivo
[4] = Microsphere diameter by light microscopy and ImageJ; type: physicochemical; settings: drug-loaded microspheres, Alone
Description: To measure microsphere diameter, microspheres were fabricated as described above with non-radiolabeled drug. A sample was suspended in ddH2O and imaged with a microscope (×20 objective, Carl Zeiss, Germany).

[5] = Encapsulation efficiency of iodine-125 labelled anti-VEGF by gamma counter; type: physicochemical
Description: (§1) Labeled proteins were lyophilized, weighed, and dissolved in 1× phosphate-buffered saline (PBS, pH 7.4) to create stock solutions of 10 mg/mL for each protein, which were stored at −80° C.
For each anti-VEGF agent, encapsulation efficiency (EE) was determined from the radioactivity measured using a gamma counter (Cobra-II Auto-Gamma, Packard Instrument Co., Meriden, CT) before and after microsphere preparation. EE was defined as the percent-drug within the microspheres relative to the theoretical loading amount.

[6] = In vitro release of anti-VEGF from microspheres and microsphere-hydrogel DDS (PBS, 37 C); type: physicochemical; settings: for Initial Burst Percent: drug released within first 24 hours; for extension of release by hydrogel: microspheres in hydrogel versus alone; for reduction of initial burst by hydrogel: microspheres in hydrogel versus microspheres alone; for steady release rate: Days 7-196; for duration of release: microspheres suspended in hydrogel
Description: as §1
Release of anti-VEGF agents was determined using a separation method also described in Osswald C. R. et al. Briefly, 15 mg of microspheres and 1 mL of the DDS (15 mg microspheres in 1 mL hydrogel) were suspended in 1.5 mL of 1×PBS to ensure detectable levels of anti-VEGF concentration throughout release. Release profiles were conducted at 37° C. under mild agitation and at predetermined intervals, 1 mL of supernatant was removed after a brief centrifugation and replaced with an equal volume of fresh buffer. Supernatants were read using a gamma counter (Packard). Cumulative release was calculated as a percent of encapsulated drug and was considered complete when the microspheres had completely degraded based on visual inspection. The IB was defined as drug released within the first 24 hours.

retina [7] = test system: retina; parameters: species or system Long-Evans rats; settings: rat, in vivo
Description: (§2) All animal procedures were in accordance with protocols approved by the Institutional Animal Care and Use Committee at the Illinois Institute of Technology, and with the principles embodied in the statement on the use of animals in ophthalmic and vision research adopted by the Association for Research in Vision and Ophthalmology. Long-Evans male rats (1-3 months, 300-350 g) were purchased from Harlan Laboratories (Indianapolis, IN, USA). Animals were anesthetized using 80 mg/kg of ketamine hydrochloride (Fort Dodge Animal Health, Fort Dodge, Iowa, USA) and 10 mg/kg xylazine (AnaSed® Injection, Akorn, Inc., Decatur, IL, USA) via intraperitoneal (IP) injection. Proparacaine drops (Bausch and Lomb, Rochester, NY, USA) were used to anesthetize the corneas throughout the procedure and pupils were dilated using phenylephrine (Bausch and Lomb) and atropine drops (Bausch and Lomb). Heart rate and blood oxygen saturation were monitored with a PulseOximeter (8500AV; Nonin Medical Inc., Plymouth, MN, USA). Animals were placed on a custom-built heated stage and monitored to maintain a core body temperature of 37° C.
Animals were separated into six groups to determine the ability of the DDS of this invention to treat CNV. For analysis purposes, lesions were considered independent within each treatment group and each group contained two rats for a total of four eyes and up to 24 lesions per treatment group. […] All IVT injections were 5 μL and performed immediately after CNV induction.
The corneal electroretinogram (ERG) is a non-invasive measurement that represents the overall electrical activity of the retina in response to a stimulus flash. It is routinely used to assess retinal cellular activity and in toxicology studies. Each component of the ERG can be used to assess different retinal cell types and any alterations in the function of the retina due to the DDS would appear as changes in amplitude or sensitivity of various ERG components. Under scotopic conditions, the ERG has two important components: the a-wave and b-wave. The rising edge of the negative a-wave is generated by the photoreceptors in the outer retina; the positive b-wave is generated primarily by the bipolar cells and/or Müller cells. Another component of the ERG is the c-wave, which originates in the RPE and can be used to assess the functional integrity of the photoreceptors, the RPE cells, and the interactions between them; however, for the purposes of this research, the c-wave was not recorded or analyzed.
Under dim red light prior to and at each time point after CNV induction and DDS injection, ERG experiments were performed under scotopic conditions, with animals dark-adapted overnight prior to the experiment. Electroretinograms, in response to the full-field Ganzfeld stimulation, were recorded by a gold wire loop placed on the cornea. The reference and ground electrodes were 30 G platinum subdermal needle electrodes ([…]™ F-E2, Grass Products, Natus Neurology, Warwick, RI, USA) inserted into the cheek and nape of the neck, respectively. A-wave and b-wave intensity responses were recorded by presenting single flashes of increasing intensity (5×10^−4 to 305.7 sc cd·s·m^−2) and allowing the eye to dark adapt for 1 min after each flash. The intensity-response values for the a-wave and b-wave were fit with the Naka-Rushton equation, to determine a half-saturation intensity of the responses and maximal response.
The parameter values obtained from the Naka-Rushton analyses and IOP measurements were compared using the paired t-test verses control. […] Unless otherwise noted, significance represents p<0.05. All values are reported as sample mean±standard error of the mean.

laser-induced CNV = assay: Laser-induced CNV rat model, lesion area from late-phase FA images (multi-Otsu thresholding); type: in vivo, Long-Evans rats; settings: 5 μL IVT immediately after CNV induction, Weeks 1-12
Description: as §2, with “Proparacaine drops (Bausch and Lomb, Rochester, NY, USA) were used to anesthetize the corneas throughout the procedure and pupils were dilated using phenylephrine (Bausch and Lomb) and atropine drops (Bausch and Lomb).” left out, “C. […]” for “C.”
A confocal scanning laser ophthalmoscope (cSLO) system (Heidelberg Retina Angiograph (HRA), Heidelberg Engineering, Heidelberg, Germany) was used to image the retina. FA still images were captured at 1-2 min, 10 min and 20 min after IP injection of 0.5 mL of 20% fluorescein dye (Sigma Aldrich, St. Louis, MO, USA) and were used for quantification of CNV lesion areas. […]
CNV lesion areas were quantified using late-phase FA images. […]

[8] = In vitro single and dual release of DEX nanoparticles and AFL microspheres from hydrogel DDS (Example 3); type: physicochemical; settings: first 14 days
Description: The DDS for single release consisted of 20 mg of DEX nanoparticles (DEX-np) suspended within a biodegradable N-isopropylacrylamide/poly(ethylene glycol)-co-(L-lactic acid) diacrylate/(NIPAAm/PEG-PLLA-DA) thermoresponsive hydrogel. The dual release consisted of 20 mg of DEX-np and 20 mg of AFL microspheres (AFL-ms) suspended within the hydrogel. DEX release in vitro, with and without AFL-ms, was quantified using NanoDrop™ OneC. Iodine-125 radiolabeled AFL was used to measure encapsulation efficiency into the hydrogel and in vitro release. The initial burst was calculated by quantifying total drug release in the first 24 hours.

bovine retina = settings: directly after exposure to 0.1 mg/mL; cited from earlier work
retina [9] = settings: vitreal concentration 6.67-10 mg/mL, 24 hr or 7 days after treatment; cited from earlier work
CNV = settings: intravitreal, out to 28 days, doses above and below clinical dose; cited from earlier work
[10] = test system: inflammation-induced angiogenesis in the cornea; settings: systemic or topical application; cited from earlier work
mouse VEGF-A = settings: cited from earlier work
Sequence of mouse VEGF-A (Q00731 205-317 limits assumed): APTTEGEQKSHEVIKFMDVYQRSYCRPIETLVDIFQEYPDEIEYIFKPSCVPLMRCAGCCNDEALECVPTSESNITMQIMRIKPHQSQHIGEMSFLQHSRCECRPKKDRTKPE

[11] = test system: corneal neovascularization; settings: cited from earlier work
[12] = in vivo; cited from earlier work
[13] = cited from earlier work

## CN[C@H](CC(C)C)C(=O)N[C@H]1C(=O)N[C@@H](CC(N)=O)C(=O)N[C@H]2C(=O)N[C@H]3C(=O)N[C@H](C(=O)N[C@H](C(=O)O)c4cc(O)cc(O)c4-c4cc3ccc4O)[C@H](O)c3ccc(c(Cl)c3)Oc3cc2cc(c3O[C@@H]2O[C@H](CO)[C@@H](O)[C@H](O)[C@H]2O[C@H]2C[C@](C)(N)[C@H](O)[C@H](C)O2)Oc2ccc(cc2Cl)[C@H]1O [VAN, vancomycin]
[1]
  duration of controlled release: over 20 days
[2]
  bioactivity: bioactivity was maintained throughout the release
[3]
  treatment efficacy: showed treatment efficacy

## aflibercept
[4]
  Diameter: 8.0 ± 0.3 μm
[5]; microspheres Alone
  Encapsulation Efficiency Percent: 44.8 ± 2.0%
[5]; microspheres in hydrogel
  Encapsulation Efficiency Percent: 44.6 ± 1.4%
[6]; microsphere-hydrogel DDS
  rate of release from the DDS, times less than that of ranibizumab: 2.3 ×
[6]; microspheres Alone
  Initial Burst Percent: 83.3 ± 2.1%
[6]
  extension of release by hydrogel: 27.2%
  reduction of initial burst by hydrogel: 76%
  duration of release: 196 days and ~200 days
[6]; microspheres in hydrogel
  steady release rate: 0.065 µg/day
  Initial Burst Percent: 20.1 ± 0.8%
[6]; non-degradable hydrogel, end of release
  encapsulated drug remaining entrapped in hydrogel after complete degradation of microspheres: 32.7±1.1%
Retina [7]
  a-wave half-saturation intensity versus control: No significant difference
  half-maximal a- or b-wave response (half-saturation intensity): No significant difference
  maximal a-wave response post-treatment, lower than control: ~40%
  maximal a-wave response, Control versus Week 1-Week 12: significant difference
laser-induced CNV
  CNV lesion area compared to non-treated animals: significantly smaller CNV lesions compared to non-treated animals at Week 4 and Week 12
[8]
  release rates in the presence of DEX-np: increased release rates
Bovine retina
  decrease in maximal scotopic b-wave response: 43.1%
Retina [9]
  ERG parameters: did not alter any ERG parameters

## bevacizumab
CNV
  therapeutic effect on CNV: no therapeutic effect was observed
[10]
  inhibition of corneal angiogenesis: significantly inhibited inflammation-induced angiogenesis
Mouse VEGF-A
  binding to mouse VEGF-A: binds to mouse VEGF-A
[11]; sub-conjunctival injection
  corneal angiogenesis: can significantly inhibit corneal angiogenesis
[11]; topical
  corneal neovascularization: limited corneal neovascularization

## ranibizumab
[4]
  Diameter: 7.5 ± 0.4 μm
[5]; microspheres Alone
  Encapsulation Efficiency Percent: 91.3 ± 2.5%
[6]; microspheres Alone
  Initial Burst Percent: 50.3 ± 2.1%
[6]
  extension of release by hydrogel: 27.2%
  reduction of initial burst by hydrogel: 58%
  duration of release: 196 days and ~200 days
[6]; microspheres in hydrogel
  steady release rate: 0.153 µg/day
  Initial Burst Percent: 21.0 ± 2.0%
Retina [7]
  a-wave parameters (maximal response, half-saturation intensity) versus control: no significant differences
  b-wave parameters versus control: no significant differences
laser-induced CNV
  CNV lesion area compared to non-treated animals: only had a significant decrease in lesion area at Week 12
[12]
  half-life t½: 220 h
CNV
  therapeutic effect on CNV: no therapeutic effect was observed

B1: ovalbumin (protein, UniProt P01012 2-386, looked up)
Ovalbumin: GSIGAASMEFCFDVFKELKVHHANENIFYCPIAIMSALAMVYLGAKDSTRTQINKVVRFDKLPGFGDSIEAQCGTSVNVHSSLRDILNQITKPNDVYSFSLASRLYAEERYPILPEYLQCVKELYRGGLEPINFQTAADQARELINSWVESQTNGIIRNVLQPSSVDSQTAMVLVNAIVFKGLWEKAFKDEDTQAMPFRVTEQESKPVQMMYQIGLFRVASMASEKMKILELPFASGTMSMLVLLPDEVSGLEQLESIINFEKLTEWTSSNVMEERKIKVYLPRMKMEEKYNLTSVLMAMGITDVFSSSANLSGISSAESLKISQAVHAAHAEINEAGREVVGSAEAGVDAASVSEEFRADHPFLFCIKHIATNAVLFFGRCVSP
notes: model protein (45 kDa) used in initial development of the DDS
[13]; microsphere-hydrogel DDS
  duration of controlled and extended release: approximately 200 days
[13]; microspheres within hydrogel
  extension of release compared to microspheres alone: ~30%
[13]; prior study
  residual entrapment in hydrogel: 8.01±0.76%

Source: US12599570B2, “Biodegradable extended release microsphere-hydrogel ocular drug delivery system and method” (priority 2015, dated 2026)
